Test results published in FireProtDB (doi:10.1006/jmbi.1999.3146).
“And” between values parts separate entries of the source, which are not always exact repeats. Equal entries are not always repeated.

Details: Myxococcus xanthus, Thermal, DSC, reversible: yes, whole UniProt chain shown
[1] = pH 3, glycine-HCl 20 mM, CaCl2 3 mM
[2] = pH 6, Sodium cacodylate 20 mM, CaCl2 3 mM

B1: Development-specific protein S wild type, P02966 (protein)
chain: MANITVFYNEDFQGKQVDLPPGNYTRAQLAALGIENNTISSVKVPPGVKAILYQNDGFAGDQIEVVANAEELGPLNNNVSSIRVISVPVQPRARFFYKEQFDGKEVDLPPGQYTQAELERYGIDNNTISSVKPQGLAVVLFKNDNFSGDTLPVNSDAPTLGAMNNNTSSIRIS
unfolding enthalpy (calorimetric) (pH 1.5, glycine-HCl 20 mM, CaCl2 3 mM): 51.9 kcal/mol and 44.5 kcal/mol
unfolding enthalpy (calorimetric) (pH 1.5, glycine-HCl 20 mM): 48.8 kcal/mol and 42.8 kcal/mol
unfolding enthalpy (calorimetric) (pH 1.75, glycine-HCl 20 mM, CaCl2 3 mM): 50.9 kcal/mol and 46.9 kcal/mol
unfolding enthalpy (calorimetric) (pH 2, glycine-HCl 20 mM, CaCl2 3 mM): 58.6 kcal/mol and 49.2 kcal/mol and 50.2 kcal/mol
Tm (pH 2, glycine-HCl 20 mM): 47.9 °C
unfolding enthalpy (calorimetric) (pH 2, glycine-HCl 20 mM): 55.2 kcal/mol
unfolding enthalpy (calorimetric) (pH 2.25, glycine-HCl 20 mM, CaCl2 3 mM): 66 kcal/mol and 55.2 kcal/mol and 54.5 kcal/mol
Tm (pH 2.25, glycine-HCl 20 mM): 38.3 °C
unfolding enthalpy (calorimetric) (pH 2.25, glycine-HCl 20 mM): 65.7 kcal/mol
unfolding enthalpy (calorimetric) (pH 2.5, glycine-HCl 20 mM, CaCl2 3 mM): 77 kcal/mol and 59 kcal/mol and 60.5 kcal/mol
Tm [1]: 55 °C and 57.3 °C and 59 °C
unfolding enthalpy (calorimetric) [1]: 94.2 kcal/mol and 77.2 kcal/mol and 62.1 kcal/mol
Tm (pH 3, glycine-HCl 20 mM): 53.7 °C and 54.6 °C
unfolding enthalpy (calorimetric) (pH 3, glycine-HCl 20 mM): 89.2 kcal/mol and 69.5 kcal/mol
Tm [2]: 70.1 °C
unfolding enthalpy (calorimetric) [2]: 79.1 kcal/mol
Tm (pH 6, Sodium cacodylate 20 mM): 68.9 °C
unfolding enthalpy (calorimetric) (pH 6, Sodium cacodylate 20 mM): 67.9 kcal/mol
unfolding enthalpy (calorimetric) (pH 9, glycine-NaOH 20 mM): 83.7 kcal/mol and 66.4 kcal/mol and 65 kcal/mol
